T1: FcγRIIb (human, UniProt P31994 43-217)
T1 construct: extracellular domain; also called FcgRIIb; 2b
T1 sequence (looked up): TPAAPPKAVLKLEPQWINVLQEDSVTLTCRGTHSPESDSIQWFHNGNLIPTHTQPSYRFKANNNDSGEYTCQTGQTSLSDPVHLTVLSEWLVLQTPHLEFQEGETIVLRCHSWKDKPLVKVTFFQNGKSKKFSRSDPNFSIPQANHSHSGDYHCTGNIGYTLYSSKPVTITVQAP

B1: GpH7-A5/GpH7-B3 variant Y300_01G/GpL16-k0 (antibody, human IgG1, kappa)
heavy 1: not shown
heavy 2: not shown
light: DIVMTQSPLSLPVTPGEPASISCQASESLVHSNRNTYLHWYLQKPGQSPQLLIYKVSNRFSGVPDRFSGSGSGTDFTLKISRVEAEDVGVYYCSQNTHVPPTFGQGTKVEIERTVAAPSVFIFPPSDEQLKSGTASVVCLLNNFYPREAKVQWKVDNALQSGNSQESVTEQDSKDSTYSLSSTLTLSKADYEKHKVYACEVTHQGLSSPVTKSFNRGEC
notes: heterodimerized IgG1, one H chain mutated; also called He Ab
B2: GpH7-A5/GpH7-B3 variant A327_04F/GpL16-k0 (antibody, human IgG1, kappa)
heavy 1: not shown
heavy 2: not shown
light: DIVMTQSPLSLPVTPGEPASISCQASESLVHSNRNTYLHWYLQKPGQSPQLLIYKVSNRFSGVPDRFSGSGSGTDFTLKISRVEAEDVGVYYCSQNTHVPPTFGQGTKVEIERTVAAPSVFIFPPSDEQLKSGTASVVCLLNNFYPREAKVQWKVDNALQSGNSQESVTEQDSKDSTYSLSSTLTLSKADYEKHKVYACEVTHQGLSSPVTKSFNRGEC
notes: as for B1
B3: GpH7-A5/GpH7-B3 variant A327_05P/GpL16-k0 (antibody, human IgG1, kappa)
heavy 1: not shown
heavy 2: not shown
light: DIVMTQSPLSLPVTPGEPASISCQASESLVHSNRNTYLHWYLQKPGQSPQLLIYKVSNRFSGVPDRFSGSGSGTDFTLKISRVEAEDVGVYYCSQNTHVPPTFGQGTKVEIERTVAAPSVFIFPPSDEQLKSGTASVVCLLNNFYPREAKVQWKVDNALQSGNSQESVTEQDSKDSTYSLSSTLTLSKADYEKHKVYACEVTHQGLSSPVTKSFNRGEC
notes: as for B1
B4: GpH7-A5/GpH7-B3 variant A327_11K/GpL16-k0 (antibody, human IgG1, kappa)
heavy 1: not shown
heavy 2: not shown
light: DIVMTQSPLSLPVTPGEPASISCQASESLVHSNRNTYLHWYLQKPGQSPQLLIYKVSNRFSGVPDRFSGSGSGTDFTLKISRVEAEDVGVYYCSQNTHVPPTFGQGTKVEIERTVAAPSVFIFPPSDEQLKSGTASVVCLLNNFYPREAKVQWKVDNALQSGNSQESVTEQDSKDSTYSLSSTLTLSKADYEKHKVYACEVTHQGLSSPVTKSFNRGEC
notes: as for B1
B5: GpH7-A5/GpH7-B3 variant N325_05P/GpL16-k0 (antibody, human IgG1, kappa)
heavy 1: not shown
heavy 2: not shown
light: DIVMTQSPLSLPVTPGEPASISCQASESLVHSNRNTYLHWYLQKPGQSPQLLIYKVSNRFSGVPDRFSGSGSGTDFTLKISRVEAEDVGVYYCSQNTHVPPTFGQGTKVEIERTVAAPSVFIFPPSDEQLKSGTASVVCLLNNFYPREAKVQWKVDNALQSGNSQESVTEQDSKDSTYSLSSTLTLSKADYEKHKVYACEVTHQGLSSPVTKSFNRGEC
notes: as for B1
B6: GpH7-A5/GpH7-B3 variant A327_08L/GpL16-k0 (antibody, human IgG1, kappa)
heavy 1: not shown
heavy 2: not shown
light: DIVMTQSPLSLPVTPGEPASISCQASESLVHSNRNTYLHWYLQKPGQSPQLLIYKVSNRFSGVPDRFSGSGSGTDFTLKISRVEAEDVGVYYCSQNTHVPPTFGQGTKVEIERTVAAPSVFIFPPSDEQLKSGTASVVCLLNNFYPREAKVQWKVDNALQSGNSQESVTEQDSKDSTYSLSSTLTLSKADYEKHKVYACEVTHQGLSSPVTKSFNRGEC
notes: as for B1
B7: GpH7-A5/GpH7-B3 variant A327_06M/GpL16-k0 (antibody, human IgG1, kappa)
heavy 1: not shown
heavy 2: not shown
light: DIVMTQSPLSLPVTPGEPASISCQASESLVHSNRNTYLHWYLQKPGQSPQLLIYKVSNRFSGVPDRFSGSGSGTDFTLKISRVEAEDVGVYYCSQNTHVPPTFGQGTKVEIERTVAAPSVFIFPPSDEQLKSGTASVVCLLNNFYPREAKVQWKVDNALQSGNSQESVTEQDSKDSTYSLSSTLTLSKADYEKHKVYACEVTHQGLSSPVTKSFNRGEC
notes: as for B1
B8: GpH7-A5/GpH7-B3 variant A327_12R/GpL16-k0 (antibody, human IgG1, kappa)
heavy 1: not shown
heavy 2: not shown
light: DIVMTQSPLSLPVTPGEPASISCQASESLVHSNRNTYLHWYLQKPGQSPQLLIYKVSNRFSGVPDRFSGSGSGTDFTLKISRVEAEDVGVYYCSQNTHVPPTFGQGTKVEIERTVAAPSVFIFPPSDEQLKSGTASVVCLLNNFYPREAKVQWKVDNALQSGNSQESVTEQDSKDSTYSLSSTLTLSKADYEKHKVYACEVTHQGLSSPVTKSFNRGEC
notes: as for B1
B9: GpH7-A5/GpH7-B3 variant N325_16H/GpL16-k0 (antibody, human IgG1, kappa)
heavy 1: not shown
heavy 2: not shown
light: DIVMTQSPLSLPVTPGEPASISCQASESLVHSNRNTYLHWYLQKPGQSPQLLIYKVSNRFSGVPDRFSGSGSGTDFTLKISRVEAEDVGVYYCSQNTHVPPTFGQGTKVEIERTVAAPSVFIFPPSDEQLKSGTASVVCLLNNFYPREAKVQWKVDNALQSGNSQESVTEQDSKDSTYSLSSTLTLSKADYEKHKVYACEVTHQGLSSPVTKSFNRGEC
notes: as for B1
B10: GpH7-A5/GpH7-B3 variant A327_19Q/GpL16-k0 (antibody, human IgG1, kappa)
heavy 1: not shown
heavy 2: not shown
light: DIVMTQSPLSLPVTPGEPASISCQASESLVHSNRNTYLHWYLQKPGQSPQLLIYKVSNRFSGVPDRFSGSGSGTDFTLKISRVEAEDVGVYYCSQNTHVPPTFGQGTKVEIERTVAAPSVFIFPPSDEQLKSGTASVVCLLNNFYPREAKVQWKVDNALQSGNSQESVTEQDSKDSTYSLSSTLTLSKADYEKHKVYACEVTHQGLSSPVTKSFNRGEC
notes: as for B1
B11: GpH7-A5/GpH7-B3 variant N325_12R/GpL16-k0 (antibody, human IgG1, kappa)
heavy 1: not shown
heavy 2: not shown
light: DIVMTQSPLSLPVTPGEPASISCQASESLVHSNRNTYLHWYLQKPGQSPQLLIYKVSNRFSGVPDRFSGSGSGTDFTLKISRVEAEDVGVYYCSQNTHVPPTFGQGTKVEIERTVAAPSVFIFPPSDEQLKSGTASVVCLLNNFYPREAKVQWKVDNALQSGNSQESVTEQDSKDSTYSLSSTLTLSKADYEKHKVYACEVTHQGLSSPVTKSFNRGEC
notes: as for B1
B12: GpH7-A5/GpH7-B3 variant N325_11K/GpL16-k0 (antibody, human IgG1, kappa)
heavy 1: not shown
heavy 2: not shown
light: DIVMTQSPLSLPVTPGEPASISCQASESLVHSNRNTYLHWYLQKPGQSPQLLIYKVSNRFSGVPDRFSGSGSGTDFTLKISRVEAEDVGVYYCSQNTHVPPTFGQGTKVEIERTVAAPSVFIFPPSDEQLKSGTASVVCLLNNFYPREAKVQWKVDNALQSGNSQESVTEQDSKDSTYSLSSTLTLSKADYEKHKVYACEVTHQGLSSPVTKSFNRGEC
notes: as for B1
B13: GpH7-A5/GpH7-B3 variant N325_02A/GpL16-k0 (antibody, human IgG1, kappa)
heavy 1: not shown
heavy 2: not shown
light: DIVMTQSPLSLPVTPGEPASISCQASESLVHSNRNTYLHWYLQKPGQSPQLLIYKVSNRFSGVPDRFSGSGSGTDFTLKISRVEAEDVGVYYCSQNTHVPPTFGQGTKVEIERTVAAPSVFIFPPSDEQLKSGTASVVCLLNNFYPREAKVQWKVDNALQSGNSQESVTEQDSKDSTYSLSSTLTLSKADYEKHKVYACEVTHQGLSSPVTKSFNRGEC
notes: as for B1
B14: GpH7-A5/GpH7-B3 variant A327_16H/GpL16-k0 (antibody, human IgG1, kappa)
heavy 1: not shown
heavy 2: not shown
light: DIVMTQSPLSLPVTPGEPASISCQASESLVHSNRNTYLHWYLQKPGQSPQLLIYKVSNRFSGVPDRFSGSGSGTDFTLKISRVEAEDVGVYYCSQNTHVPPTFGQGTKVEIERTVAAPSVFIFPPSDEQLKSGTASVVCLLNNFYPREAKVQWKVDNALQSGNSQESVTEQDSKDSTYSLSSTLTLSKADYEKHKVYACEVTHQGLSSPVTKSFNRGEC
notes: as for B1
B15: GpH7-A5/GpH7-B3 variant A327_13S/GpL16-k0 (antibody, human IgG1, kappa)
heavy 1: not shown
heavy 2: not shown
light: DIVMTQSPLSLPVTPGEPASISCQASESLVHSNRNTYLHWYLQKPGQSPQLLIYKVSNRFSGVPDRFSGSGSGTDFTLKISRVEAEDVGVYYCSQNTHVPPTFGQGTKVEIERTVAAPSVFIFPPSDEQLKSGTASVVCLLNNFYPREAKVQWKVDNALQSGNSQESVTEQDSKDSTYSLSSTLTLSKADYEKHKVYACEVTHQGLSSPVTKSFNRGEC
notes: as for B1
B16: GpH7-A5/GpH7-B3 variant A327_15Y/GpL16-k0 (antibody, human IgG1, kappa)
heavy 1: not shown
heavy 2: not shown
light: DIVMTQSPLSLPVTPGEPASISCQASESLVHSNRNTYLHWYLQKPGQSPQLLIYKVSNRFSGVPDRFSGSGSGTDFTLKISRVEAEDVGVYYCSQNTHVPPTFGQGTKVEIERTVAAPSVFIFPPSDEQLKSGTASVVCLLNNFYPREAKVQWKVDNALQSGNSQESVTEQDSKDSTYSLSSTLTLSKADYEKHKVYACEVTHQGLSSPVTKSFNRGEC
notes: as for B1

Columns and labels:
FcγRIa [1] = target: T2, FcγRIa (human, UniProt P12314 16-292); assay: SPR (Biacore), relative to GpH7-A5/GpH7-B3/GpL16-k0 = 100
T2 construct: extracellular domain; also called FcgRI; FcgRIa
T2 sequence (P12314 16-292): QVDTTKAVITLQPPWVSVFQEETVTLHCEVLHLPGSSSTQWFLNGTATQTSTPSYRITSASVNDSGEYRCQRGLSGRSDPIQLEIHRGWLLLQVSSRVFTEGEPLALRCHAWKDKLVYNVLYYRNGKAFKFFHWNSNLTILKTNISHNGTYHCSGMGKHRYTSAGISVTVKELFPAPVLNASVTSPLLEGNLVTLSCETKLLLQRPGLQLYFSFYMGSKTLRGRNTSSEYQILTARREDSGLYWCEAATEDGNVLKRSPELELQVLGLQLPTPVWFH
Method: (§1) The heterodimerized antibodies He Abs in which one of the H chains was introduced with an alteration were assayed for their binding activities to each activating FcγR and inhibitory FcγR according to the method described in Example 4. […] The activating FcγRs in FIGS. 26, 27, 28, and 29 are FcγRIa, FcγRIIa (R), FcγRIIa (H), and FcγRIIIa, respectively.
(§2) Analysis of interaction between objective antibody and the FcγR was carried out using Biacore T100 (GE Healthcare). HBS-EP+ (GE Healthcare) was used as the running buffer, and the measurement temperature was set to 25° C. Chips produced by immobilizing the antigen peptide by the amine coupling method to a Series S Sencor Chip CM5 (GE Healthcare), or alternatively, chips produced by allowing preliminarily biotinylated antigen peptides to interact with and immobilize onto a Series S Sensor Chip SA (certified) (GE Healthcare) were used. Antibodies of interest were captured onto an antigen peptide-immobilized chip, and allowed to interact to each FcγR diluted with running buffer. To regenerate and repeatedly use the chip, the antibodies captured on the chip were washed off by reacting 10 mM glycine-HCl, pH 1.5.

FcγRIIb = target: T1, FcγRIIb; assay: as above
Method: as §1, §2

FcγRIa [2] = target: T2, FcγRIa; assay: SPR (Biacore); He/Con_1a (FcgRIa) divided by He/Con_2b (FcgRIIb)
Method: as §1, §2

Row | Binder | He/Con_1a (Ia binding) (FcγRIa [1]) | He/Con_2b (IIb binding) (FcγRIIb) | Ia/IIb He_1a/2b (FcγRIa [2])
1 | B1 | 116 relative (control = 100) | 48.4 relative (control = 100) | 2.4
2 | B2 | 99.1 relative (control = 100) | 63.7 relative (control = 100) | 1.56
3 | B3 | 99.3 relative (control = 100) | 69.3 relative (control = 100) | 1.43
4 | B4 | 86.1 relative (control = 100) | 12.5 relative (control = 100) | 6.87
5 | B5 | 88.8 relative (control = 100) | 26 relative (control = 100) | 3.42
6 | B6 | 98.6 relative (control = 100) | 63.1 relative (control = 100) | 1.56
7 | B7 | 103 relative (control = 100) | 59.5 relative (control = 100) | 1.74
8 | B8 | 86.7 relative (control = 100) |  | 9.64
9 | B9 | 95.1 relative (control = 100) | 70.1 relative (control = 100) | 1.36
10 | B10 | 96.2 relative (control = 100) | 54.2 relative (control = 100) | 1.78
11 | B11 | 84.2 relative (control = 100) | 19.1 relative (control = 100) | 4.41
12 | B12 | 80.9 relative (control = 100) | 10.4 relative (control = 100) | 7.81
13 | B13 | 96.8 relative (control = 100) | 64.4 relative (control = 100) | 1.5
14 | B14 | 96.5 relative (control = 100) | 63.5 relative (control = 100) | 1.52
15 | B15 | 102 relative (control = 100) | 79.5 relative (control = 100) | 1.29
16 | B16 | 96.3 relative (control = 100) | 60.8 relative (control = 100) | 1.58
